According to patent US20020058275A1, “Compositions, kits, and methods for effecting adenine nucleotide modulation of DNA mismatch recognition proteins” (Thomas Jefferson University, priority 1997, published 2002):

Molecular target: T1, IVTT-hMSH4 (Homo sapiens, UniProt O15457)
T1 construct: made in house; host or cells: in vitro transcription/translation, TNT coupled reticulocyte lysate (Promega), insert in pCR 2.1
T1 sequence (O15457 1-936): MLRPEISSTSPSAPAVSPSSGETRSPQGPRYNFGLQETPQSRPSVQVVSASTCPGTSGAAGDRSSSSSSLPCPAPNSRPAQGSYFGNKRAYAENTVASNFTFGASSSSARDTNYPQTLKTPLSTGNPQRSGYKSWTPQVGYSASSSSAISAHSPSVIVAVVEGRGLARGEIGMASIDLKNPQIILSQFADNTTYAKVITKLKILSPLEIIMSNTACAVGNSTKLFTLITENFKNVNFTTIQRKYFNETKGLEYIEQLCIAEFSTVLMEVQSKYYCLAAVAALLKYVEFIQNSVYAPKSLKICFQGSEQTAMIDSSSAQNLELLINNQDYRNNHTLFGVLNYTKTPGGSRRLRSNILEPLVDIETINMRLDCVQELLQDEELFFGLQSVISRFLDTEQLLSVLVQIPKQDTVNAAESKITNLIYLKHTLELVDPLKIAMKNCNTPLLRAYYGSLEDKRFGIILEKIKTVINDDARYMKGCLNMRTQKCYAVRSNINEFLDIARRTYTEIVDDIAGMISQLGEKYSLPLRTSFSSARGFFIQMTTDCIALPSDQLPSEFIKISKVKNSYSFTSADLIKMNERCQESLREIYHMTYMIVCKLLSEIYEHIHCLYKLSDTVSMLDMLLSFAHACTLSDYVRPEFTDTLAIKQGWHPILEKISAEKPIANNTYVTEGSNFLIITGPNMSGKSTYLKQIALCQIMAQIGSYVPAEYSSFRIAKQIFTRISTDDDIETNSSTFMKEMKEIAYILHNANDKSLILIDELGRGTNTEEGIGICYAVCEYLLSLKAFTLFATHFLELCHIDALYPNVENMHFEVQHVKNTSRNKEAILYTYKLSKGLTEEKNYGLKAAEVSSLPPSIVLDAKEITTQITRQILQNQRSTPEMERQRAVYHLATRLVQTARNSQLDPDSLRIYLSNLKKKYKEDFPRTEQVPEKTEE
Experiment: GST fusion protein interaction assay
Format: binding
Details: GST fusion protein as bait
Description: 500 microliters taken from a 5 milliliter overnight starter culture of cells which expressed an hMSH2-, hMSH3-, hMSH5-, or hMSH6-pGEX-fusion protein with (or non-fused pGEX as a negative control) was inoculated into 50 milliliters of Luria broth which contained 50 micrograms per milliliter ampicillin, and this culture was grown until the optical density at 600 nanometers was about 0.5. Protein expression was induced by addition of 0.1 millimolar (final concentration) IPTG for 2 hours at 30° C. Cells were pelleted and resuspended in 750 microliters of phosphate buffered saline containing protease inhibitors. A 10 minute digestion on ice using 1 milligram per milliliter lysozyme was then performed. After the addition of 0.2% (v/v) Triton X-100 and 1 millimolar dithiothreitol (final concentrations), the lysate was snap-frozen in liquid nitrogen and thawed twice. DNaseI (200 units per milliliter; Boehringer Mannheim, Germany) digestion was performed using the thawed lysate for 30 minutes on ice, after which cell debris was removed by centrifugation at 14,000 rpm at 4° C. for 30 minutes in a benchtop microfuge. […]

B1: hMSH5: human MutS homolog, putative 834-amino-acid protein encoded by clone b29 (SEQ ID NO: 29) (protein)
chain: MASLGANPRRTPQGPRPGAASSGFPSPAPVPGPREAEEEEVEEEEELAEIHLCVLWNSGYLGIAYYDTSDSTIHFMPDAPDHESLKLLQRVLDEINPQSVVTSAKQDENMTRFLGKLASQEHREPKRPEIIFLPSVDFGLEISKQRLLSGNYSFIPDAMTATEKILFLSSIIPFDCLLTVRALGGLLKFLGRRRIGVELEDYNVSVPILGFKKFMLTHLVNIDQDTYSVLQIFKSESHPSVYKVASGLKEGLSLFGILNRCHCKWGEKLLRLWFTRPTHDLGELSSRLDVIQFFLLPQNLDMAQMLHRLLGHIKNVPLILKRMKLSHTKVSDWQVLYKTVYSALGLRDACRSLPQSIQLFRDIAQEFSDDLHHIASLIGKVVDFEGSLAENRFTVLPNIDPEIDEKKRRLMGLPSFLTEVARKELENLDSRIPSCSVIYIPLIGFLLSIPRLPSMVEASDFEINGLDFMFLSEEKLHYRSARTKELDALLGDLHCEIRDQETLLMYQLQCQVLARAAVLTRVLDLASRLDVLLALASAARDYGYSRPRYSPQVLGVRIQNGRHPLMELCARTFVPNSTECGGDKGRVKVITGPNSSGKSIYLKQVGLITFMALVGSFVPAEEAEIGAVDAIFTRIHSCESISLGLSTFMIDLNQVAKAVNNATAQSLVLIDEFGKGTNTVDGLALLAAVLRHWLARGPTCPHIFVATNFLSLVQLQLLPQGPLVQYLTMETCEDGNDLVFFYQVCEGVAKASHASHTAAQAGLPDKLVARGKEVSDLIRSGKPIKPVKDLLKKNQMENCQTLVDKFMKLDLEDPNLDLNVFMSQEVLPAATSIL
modifications: left off: a dimerising Fc or GST; large carriers; small tags and cut ends
  interaction with IVTT-hMSH4: significant interaction
